From patent publication US20240067944A1 (published 2024)

Legend:
[1] = biological target: T1, human plasma-derived FX (Haematologic Technologies Inc, USA) (human, UniProt P00742 41-179; P00742 183-488); test: SPR, FX captured on immobilised anti-GLA-FX antibody, steady state analysis, 25 C
T1 construct: also called coagulation Factor X; human FX
Description: Briefly, an anti-GLA-FX, prepared recombinantly as described above, was immobilised on a CM4 sensor chip or a Xantec HLC200M using standard amine coupling chemistry at pH 5. 10 nM FX (Haematologic Technologies, USA) was injected at a flow rate of 10 μL/min for 30 seconds. Subsequently 1000, 100, 10, 1, 0.1 and 0 nM of VHH polypeptide compound, according to Table 9, below were injected at a flow rate of 50 μL/min for 200 seconds to allow for binding to FX followed by a flow of 10 minutes with a running buffer (10 mM HEPES, 150 mM NaCl, 5 mM CaCl₂), 0.05% (v/v) Surfactant P20, 1 mg/mL bovine serum albumin, pH 7.4) injection allowing for dissociation from FX. The running buffer was also used for dilution of anti-FX VHH polypeptide compounds. Regeneration of the chip was achieved using a regeneration buffer consisting of 50 mM EDTA in running buffer, 30 seconds contact time, and a 30 μL/min flow rate. The binding data were collected at 25° C. and were analysed according to a 1:1 model using BiaEvaluation 4.1 supplied by the manufacturer (Biacore AB, Uppsala or Bruker Analyser).
(§1) Therefore, the reported KD values are determined based on steady state analysis.

[2] = biological target: T2, Benefix (Pfizer Inc, USA), FIX (human, UniProt P00740 47-461); test: SPR, FIX (Benefix) captured on immobilised anti-GLA-FIX antibody, steady state analysis, 25 C
T2 construct: Bought product; also called FIX (Benefix®)
Description: Briefly, anti-GLA-FIX, prepared recombinantly as described above, was immobilised on a CM4 sensor chip or a Xantec HLC200M using standard amine coupling chemistry at pH 5. FIX (10 nM) was injected at a flow rate of 10 μL/min for 1 minute. Subsequently 1000, 100, 10, 1, 0.1 and 0 nM of VHH polypeptide compound were injected at a flow rate of 30 μL/min for 4 minutes to allow for binding to the FIX (Benefix®) followed by a flow of 5 minutes running buffer (10 mM HEPES, 150 mM NaCl, 5 mM CaCl₂), 0.05% (v/v) Surfactant P20, 1 mg/mL bovine serum albumin, pH 7.4) injection allowing for dissociation from FIX. The running buffer was also used for dilution of anti-FIX VHH polypeptide compounds. Regeneration of the chip was achieved using a regeneration buffer consisting of 50 mM EDTA in running buffer, 30 seconds contact time, and a 30 μL/min flow rate. The binding data were collected at 25° C. and were analysed according to a 1:1 model using BiaEvaluation 4.1 supplied by the manufacturer (Biacore AB, Uppsala).
as §1

[3] = biological target: T1, human plasma-derived FX (Haematologic …); test: cell-based or functional assay

T2 sequence (P00740 47-461 T194A limits assumed): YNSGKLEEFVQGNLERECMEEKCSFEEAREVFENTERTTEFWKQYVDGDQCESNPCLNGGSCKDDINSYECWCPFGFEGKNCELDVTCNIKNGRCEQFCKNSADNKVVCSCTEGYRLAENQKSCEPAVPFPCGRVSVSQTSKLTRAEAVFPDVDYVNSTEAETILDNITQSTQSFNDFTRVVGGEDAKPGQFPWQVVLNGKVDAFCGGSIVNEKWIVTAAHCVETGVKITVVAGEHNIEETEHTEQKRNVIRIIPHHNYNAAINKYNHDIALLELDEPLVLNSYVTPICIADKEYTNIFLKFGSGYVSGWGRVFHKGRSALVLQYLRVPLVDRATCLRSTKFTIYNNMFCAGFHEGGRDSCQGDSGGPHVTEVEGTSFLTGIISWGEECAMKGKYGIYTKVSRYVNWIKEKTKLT
T1 sequence (P00742 41-179, chain 1 of 2): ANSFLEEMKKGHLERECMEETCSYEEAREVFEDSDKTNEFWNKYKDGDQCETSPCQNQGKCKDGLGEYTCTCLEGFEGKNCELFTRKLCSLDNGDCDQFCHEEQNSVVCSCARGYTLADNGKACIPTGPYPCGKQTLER
T1 sequence (P00742 183-488, chain 2 of 2): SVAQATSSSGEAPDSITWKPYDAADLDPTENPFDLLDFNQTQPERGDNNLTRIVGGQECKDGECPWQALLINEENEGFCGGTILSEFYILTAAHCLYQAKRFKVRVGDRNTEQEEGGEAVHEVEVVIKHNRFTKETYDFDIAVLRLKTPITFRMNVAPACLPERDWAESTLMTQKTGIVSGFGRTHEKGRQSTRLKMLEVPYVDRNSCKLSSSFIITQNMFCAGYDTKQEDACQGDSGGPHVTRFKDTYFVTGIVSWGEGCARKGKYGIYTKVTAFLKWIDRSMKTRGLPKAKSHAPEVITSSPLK

Kd [1] [µM]	Kd [2] [µM]	KM (nM) of FX activation by 0.1 nM FIXa on phospholipid vesicles with 5 nM compound [3] [nM]	kcat/KM (1/(min * nM)) of FX activation by 0.1 nM FIXa with 5 nM compound [3] [M⁻¹ s⁻¹]	Binder
0.199	0.0027			Cmpd #5 (anti-FX/anti-FIX(a) VHH polypeptide derivative) (bispecific antibody, C18 diacid protractor (P3) via linker LP1 on Cys6 in C-term extension (SEQ ID NO: 7), Single chain of two VHH: anti-FX (N-terminal) and anti-FIX(a) (C-terminal)) DVQLVESGGGVVQPGGSLQLSCAASGRTHSRYAMGWFRQAPGQEREFVAAISRRGGSTNYADSVKGRFTISRDNSKNTVYLQMDSLRPEDTALYYCAADDSSGDGYLDYWGQGTLVTVSSGGGGSGGGSEVQLVESGGGVVQPGGSLQLSCAASGRTFNIYTMSWFRQAPGQEREFVAGLRWTDSSTEYADSVKGRFTISRDNSKNTVYLQMDSLRPEDTALYYCAADRSFLFAQALGATKNYEYWGQGTLVTVSSGGGGSCHHHHHH
		8.2	5e+06	Cmpd #19 (anti-FX/anti-FIX(a) VHH polypeptide derivative) (bispecific antibody, C16 diacid protractor (P2) via linker LP1 on Cys4 and Cys6 in C-term extension (SEQ ID NO :9)) DVQLVESGGGVVQPGGSLQLSCAASGGTKSRYAMGWFRQAPGQEREWVAAISRRGGSTNYADSVKGRFTISRDNSKNTVYLQMDSLRPEDTALYYCAADDSVGDGYLDYWGQGTLVTVSSGQAPGQEVQLVESGGGVVQPGGSLQLSCAASGRTFNIYTMSWFRQAPGQEREFVAGLRWTDSSTEYADSVKGRFTISRDNSKNTVYLQMDSLRPEDTALYYCAADRSFLFAQALGATKNYEYWGQGTLVTVSSGQACPC
		9	2.5e+06	Cmpd #17 (anti-FX/anti-FIX(a) VHH polypeptide derivative) (bispecific antibody, C16 diacid protractor (P2) via linker LP1 on Cys4 and Cys6 in C-term extension (SEQ ID NO: 9)) DVQLVESGGGVVQPGGSLQLSCAASGGTKSRYAMGWFRQAPGQEREWVAAISRRGGSTNYADSVKGRFTISRDNSKNTVYLDMDDLRPEDTALYYCAADDSVGDGYLDYWGQGTLVTVSSGQAPGQEVQLVESGGGVVQPGGSLQLSCAASGRTFNIYTMSWFRQDPGQEREFVAGLRWTDSSTEYADSVKGRFTISRDNSKNTVYLQMDSLRPEDTALYYCAADRSFLFAQALGATKNYEYWGQGTLVTVSSGQACPC
0.026	0.0078			Cmpd #12 (anti-FX/anti-FIX(a) VHH polypeptide derivative) (bispecific antibody, C16 diacid protractor (P2) via linker LP1 on Cys4 and Cys6 in C-term extension (SEQ ID NO: 9), Single chain of two VHH: anti-FX (N-terminal) and anti-FIX(a) (C-terminal); also called VHH1.12-L1-2-VHH2.12-E) DVQLVESGGGVVQPGGSLQLSCAASGGTKRRLAMGWFRQAPGQEREFVAAISRRGGSTNYADSVKGRFTISRDNSKNTVYLDMDDLRPEDTALYYCAADDSVGDGYLDYWGQGTLVTVSSGQAPGQEVQLVESGGGVVQPGGSLQLSCAASGRTFNIYTMSWFRQDPGQEREFVAGLRWTDSSTEYADSVKGRFTISRDNSKNTVYLQMDSLRPEDTALYYCAADRSFLFAQALGATKNYEYWGQGTLVTVSSGQACPC
0.096	0.0025	4.8	4.5e+06	Cmpd #8 (anti-FX/anti-FIX(a) VHH polypeptide derivative) (bispecific antibody, C16 diacid protractor (P2) via linker LP1 on Cys4 and Cys6 in C-term extension (SEQ ID NO: 9), Single chain of two VHH: anti-FX (N-terminal) and anti-FIX(a) (C-terminal)) DVQLVESGGGVVQPGGSLQLSCAASGGTKSRYAMGWFRQAPGQEREFVAAISRRGGSTNYADSVKGRFTISRDNSKNTVYLQMDSLRPEDTALYYCAADDSVGDGYLDYWGQGTLVTVSSGQAPGQEVQLVESGGGVVQPGGSLQLSCAASGRTFNIYTMSWFRQAPGQEREFVAGLRWTDSSTEYADSVKGRFTISRDNSKNTVYLQMDSLRPEDTALYYCAADRSFLFAQALGATKNYEYWGQGTLVTVSSGQACPC
0.3	0.002	6.2	3e+06	Cmpd #13 (anti-FX/anti-FIX(a) VHH polypeptide derivative) (bispecific antibody, C16 diacid protractor (P2) via linker LP1 on Cys4 and Cys6 in C-term extension (SEQ ID NO: 9), Single chain of two VHH: anti-FX (N-terminal) and anti-FIX(a) (C-terminal); also called VHH1.13-L1-2-VHH2.13-E) DVQLVESGGGVVQPGGSLQLSCAASGGTKRRLAMGWFRQAPGQEREWVAAISRRGGSTNYADSVKGRFTISRDNSKNTVYLDMDDLRPEDTALYYCAADDSVGDGYLDYWGQGTLVTVSSGQAPGQEVQLVESGGGVVQPGGSLQLSCAASGRTFNIYTMSWFRQDPGQEREFVAGLRWTDSSTEYADSVKGRFTISRDNSKNTVYLQMDSLRPEDTALYYCAADRSFLFAQALGATKNYEYWGQGTLVTVSSGQACPC
0.07	0.0011			Cmpd #9 (anti-FX/anti-FIX(a) VHH polypeptide derivative) (bispecific antibody, C16 diacid protractor (P2) via linker LP1 on Cys4 and Cys6 in C-term extension (SEQ ID NO: 9), Single chain of two VHH: anti-FX (N-terminal) and anti-FIX(a) (C-terminal)) DVQLVESGGGVVQPGGSLQLSCAASGGTKSRYAMGWFRQAPGQEREFVAAISRRGGSTNYADSVKGRFTISRDNSKNTVYLDMDDLRPEDTALYYCAADDSVGDGYLDYWGQGTLVTVSSGQAPGQEVQLVESGGGVVQPGGSLRLSCAASGRTFNIYTMSWFRQDPGQEREFVAGLRWTDSSTEYADSVKGRFTISRDNSKNTVYLQMNSLRPEDTALYYCAADRSFLFAQALGATKNYEYWGQGTLVTVSSGQACPC
0.042	0.0064			Cmpd #11 (anti-FX/anti-FIX(a) VHH polypeptide derivative) (bispecific antibody, C16 diacid protractor (P2) via linker LP1 on Cys4 and Cys6 in C-term extension (SEQ ID NO: 9), Single chain of two VHH: anti-FX (N-terminal) and anti-FIX(a) (C-terminal)) DVQLVESGGGVVQPGGSLQLSCAASGGTKRRLAMGWFRQAPGQEREFVAAISRRGGSTNYADSVKGRFTISRDNSKNTVYLDMDDLRPEDTALYYCAADDSVGDGYLDYWGQGTLVTVSSGQAPGQEVQLVESGGGVVQPGGSLRLSCAASGRTFNIYTMSWFRQDPGQEREFVAGLRWTDSSTEYADSVKGRFTISRDNSKNTVYLQMNSLRPEDTALYYCAADRSFLFAQALGATKNYEYWGQGTLVTVSSGQACPC

Further lines, the binder ahead of its results:

Binder	Kd [1] [µM]	Kd [2] [µM]	KM (nM) of FX activation by 0.1 nM FIXa on phospholipid vesicles with 5 nM compound [3] [nM]	kcat/KM (1/(min * nM)) of FX activation by 0.1 nM FIXa with 5 nM compound [3] [M⁻¹ s⁻¹]
Cmpd #4 (anti-FX/anti-FIX(a) VHH polypeptide derivative) (bispecific antibody, C18 diacid protractor (P3) via linker LP1 on Cys6 in C-term extension (SEQ ID NO: 7), Single chain of two VHH: anti-FX (N-terminal) and anti-FIX(a) (C-terminal)) DVQLVESGGGVVQPGGSLRLSCAASGRTHSRYAMGWFRQAPGKEREFVAAISRRGGSTNYADSVKGRFTISRDNSKNTVYLQMNSLRPEDTALYYCAADDSSGDGYLDYWGQGTLVTVSSGGGGSGGGSEVQLVESGGGVVQPGGSLRLSCAASGRTFNIYTMSWFRQAPGKEREFVAGLRWTDSSTEYADSVKGRFTISRDNSKNTVYLQMNSLRPEDTALYYCAADRSFLFAQALGATKNYEYWGQGTLVTVSSGGGGSCHHHHHH	0.229	0.0117		
Cmpd #21 (anti-FX/anti-FIX(a) VHH polypeptide derivative) (bispecific antibody, C16 diacid protractor (P2) via linker LP1 on Cys4 and Cys6 in C-term extension (SEQ ID NO: 9)) DVQLVESGGGVVQPGGSLQLSCAASGGTKSRYAMGWFRQAPGQEREFVAAISRRGGSTNYADSVKGRFTISRDNSKNTVYLDMDDLRPEDTALYYCAADDSVGDGYLDYWGQGTLVTVSSGQAPGQEVQLVESGGGVVQPGGSLQLSCAASGRTFNIYTMSWFRQDPGQEREFVAGLRWTDSSTEYADSVKGRFTISRDNSKNTVYLQMDSLRPEDTALYYCAADRSFLFAQALGATKNYEYWGQGTLVTVSSGQACPC			3.9	4.5e+06
Cmpd #16 (anti-FX/anti-FIX(a) VHH polypeptide derivative) (bispecific antibody, C16 diacid protractor (P2) via linker LP1 on Cys4 and Cys6 in C-term extension (SEQ ID NO: 9)) DVQLVESGGGVVQPGGSLQLSCAASGGTKRRLAMGWFRQAPGQEREWVAAISRRGGSTNYADSVKGRFTISRDNSKNTVYLDMDDLRPEDTALYYCAADDSVGDGYLDYWGQGTLVTVSSGQAPGQEVQLVESGGGVVQPGGSLRLSCAASGRYFNIYTMSWFRQDPGQEREFVAGLRWTDSSTEYADSVKGRFTISRDNSKNTVYLQMNSLRPEDTALYYCAADRSFLFAQALGATKNYEYWGQGTLVTVSSGQACPC			7.1	2.33e+06
Cmpd #14 (anti-FX/anti-FIX(a) VHH polypeptide derivative) (bispecific antibody, C16 diacid protractor (P2) via linker LP1 on Cys4 and Cys6 in C-term extension (SEQ ID NO: 9), Single chain of two VHH: anti-FX (N-terminal) and anti-FIX(a) (C-terminal); also called VHH1.14-L1-2-VHH2.14-E) DVQLVESGGGVVQPGGSLQLSCAASGGTKRRLAMGWFRQAPGQEREFVAAISRRGGSTNYADSVKGRFTISRDNSKNTVYLQMDSLRPEDTALYYCAADDSVGDGYLDYWGQGTLVTVSSGQAPGQEVQLVESGGGVVQPGGSLQLSCAASGRTFNIYTMSWFRQAPGQEREFVAGLRWTDSSTEYADSVKGRFTISRDNSKNTVYLQMDSLRPEDTALYYCAADRSFLFAQALGATKNYEYWGQGTLVTVSSGQACPC	0.042	0.0016		
Cmpd #7 (anti-FX/anti-FIX(a) VHH polypeptide derivative) (bispecific antibody, C16 diacid protractor (P2) via linker LP1 on Cys4 and Cys6 in C-term extension (SEQ ID NO: 9), Single chain of two VHH: anti-FX (N-terminal) and anti-FIX(a) (C-terminal)) DVQLVESGGGVVQPGGSLQLSCAASGGTKSRYAMGWFRQAPGQEREFVAAISRRGGSTNYADSVKGRFTISRDNSKNTVYLQMDSLRPEDTALYYCAADDSVGDGYLDYWGQGTLVTVSSGQAPGQEVQLVESGGGVVQPGGSLRLSCAASGRTFNIYTMSWFRQAPGQEREFVAGLRWTDSSTEYADSVKGRFTISRDNSKNTVYLQMNSLRPEDTALYYCAADRSFLFAQALGATKNYEYWGQGTLVTVSSGQACPC	0.082	0.0023		
Cmpd #10 (anti-FX/anti-FIX(a) VHH polypeptide derivative) (bispecific antibody, C16 diacid protractor (P2) via linker LP1 on Cys4 and Cys6 in C-term extension (SEQ ID NO: 9), Single chain of two VHH: anti-FX (N-terminal) and anti-FIX(a) (C-terminal)) DVQLVESGGGVVQPGGSLQLSCAASGGTKRRLAMGWFRQAPGQEREWVAAISRRGGSTNYADSVKGRFTISRDNSKNTVYLQMDSLRPEDTALYYCAADDSVGDGYLDYWGQGTLVTVSSGQAPGQEVQLVESGGGVVQPGGSLRLSCAASGRTFNIYTMSWFRQAPGQEREFVAGLRWTDSSTEYADSVKGRFTISRDNSKNTVYLQMNSLRPEDTALYYCAADRSFLFAQALGATKNYEYWGQGTLVTVSSGQACPC	0.19	0.0055		
